In PMC8158037:

Biological target: δ-toxin (secreted by S. aureus MW2 and its ΔPSMα strain) (Staphylococcus aureus MW2)
Assay: AUC + SEC-MALS + native MS + cross-linking

Work on “δ-toxin (secreted by S. aureus MW2 and its ΔPSMα strain) (peptide)” yielded a stoichiometry N of 8.
